Assays:
[1] = system: BD009-SDpol-1 (synthetic construct); settings: RT-LAMP time at 10000 copies RNA; 7 mM MgSO4, 50 mM KCl, pH 8.8; 18.6 min at 10 copies
Bst 2.0 = settings: RT-LAMP time at 10000 copies RNA; 8 mM MgSO4, 50 mM KCl, pH 8.8; none at 100 copies

For SARS-CoV-2 gene N LAMP target, the activity [1] was 8.7 min and the activity (Bst 2.0) was 30 min.
